These results are taken from patent US20170335290A1 (published 2017).

Test [1] has as its target T1, survivin, heteroclitic variant 97M peptide on HLA-A*02:01 (human).
T1 peptide: LMLGEFLKL
Description: 4-hour 51Cr release, 50% lysis at E:T 10:1, LML-pulsed T2 cells; value given for a published TCR (Leisegang et al. 2010); T cell clone or line.

Test [2] concerns the target T1, survivin, heteroclitic variant 97M …. Description: 4-hour 51Cr release, 50% lysis at E:T 10:1, clone #24 against LML-pulsed T2 cells, peptide titration; T cell clone or line.
Test [3] deals with T2, survivin peptide on HLA-A*02:01 (human).
T2 peptide: ELTLGEFLKL
Description: 51Cr release, clone #24 against ELT-pulsed T2 cells, E:T 10:1, peptide titration (avidity as defined in Table 1); T cell clone or line.

For test [4], the target named is T3, CD81 (CD81 antigen) peptide on HLA-A*02:01 (human).
T3 peptide: QCLLGTFFTC
Description: cytokine release.

Test [5] addresses T4, CD3d (CD3 delta) peptide on HLA-A*02:01 (human).
T4 peptide: LALGVFCFA
Description: cytokine release.

For test [6], the target named is T5, CD3d (CD3 delta) peptide on HLA-A*02:01 (human).
T5 peptide: LLALGVFCFA
Description: cytokine release.

For test [7], the target named is T6, CRLS1 (cardiolipin synthase) peptide on HLA-A*02:01 (human).
T6 peptide: NIALGVFALA
Description: cytokine release.

For test [8], the target named is T7, EPB42 (Erythrocyte membrane protein band 4.2) peptide on HLA-A*02:01 (human).
T7 peptide: QLLLGQFTLL
Description: cytokine release.

Test [9] deals with T8, INGR2 (Interferon gamma receptor 2) peptide on HLA-A*02:01 (human).
T8 peptide: LLLLGVFAAA
Description: cytokine release.

Test [10] concerns the target T9, CSF3R (Granulocyte colony stimulating factor receptor) peptide on HLA-A*02:01 (human).
T9 peptide: HIILGLFGLL
Description: cytokine release.

Test [11] addresses T2, survivin peptide on HLA-A*02:01. Description: killing.
In test [12] the target is T10, survivin ELT, alanine substitution at position 5 (residues not given, written out from the filing's … (human)).
T10 peptide: ELTLAEFLKL
Description: cytokine release.

Test [13] addresses T11, survivin ELT, alanine substitution at position 3 (residues not given, written out from the filing's … (human)).
T11 peptide: ELALGEFLKL
Description: cytokine release.

B1: A66 (TCR)
alpha TRAV13-1*02 TRAJ39*01 CDR3: CAARAGNMLTF
beta TRBV30*01 TRBJ2-7*01 CDR3: CAWGTGLALYEQYF
For the molecule B1, the EC50 of peptide in [1] worked out at 50 nM.

B2: s24-TCR (TCR, V domains shown)
Valpha: GESVGLHLPTLSVQEGDNSIINCAYSNSASDYFIWYKQESGKGPQFIIDIRSNMDKRQGQRVTVLLNKTVKHLSLQIAATQPGDSAVYFCAETVTDSWGKLQFGAGTQVVVTP
Vbeta: DAMVIQNPRYQVTQFGKPVTLSCSQTLNHNVMYWYQQKSSQAPKLLFHYYDKDFNNEADTPDNFQSRRPNTSFCFLDIRSPGLGDAAMYLCATSRGDSTAEPQHFGDGTRLSIL
For the molecule B2, the EC50 of peptide in test [2] was 50 nM; in test [3], 1000 nM. For the same molecule, the binding result in test [4], in test [5], in test [6], in [7], in test [8] and in test [9] was “no recognition” in each case. For the same molecule, the binding result in [10] is recorded as “no recognition”.

B3: A72-TCR (TCR)
Valpha: AQKITQTQPGMFVQEKEAVTLDCTYDTSDQSYGLFWYKQPSSGEMIFLIYQGSYDEQNATEGRYSLNFQKARKSANLVISASQLGDSAMYFCAMREGGGYNKLIFGAGTRLAVHP
beta TRBV30*02 TRBJ1-1*01 CDR3: CAGQDLNTEAFF
B3 came in with an EC50 of peptide in test [1] of 0.05 nM. Further, the binding result in test [11] was “recognises”; in test [4] it was “recognises”; in test [5], “recognises”; in test [6], “no recognition”; in test [7], “no recognition”; in test [12], “recognises”. The binding result is given as “no recognition” in [8], “recognises” in test [13], “no recognition” in test [9] and “no recognition” in [10].
